Where a chain is given by its changes, count along the chain named. Where two headings read alike, the source gives them in different places.

In assay [1] the target is T1, mouse transferrin receptor fused to EGFP, expressed on CHO cells (mouse, UniProt Q62351 1-763).
T1 construct: whole, on cells; also called mTfR; mouse TfR
The assay is described as follows: flow cytometry, CHO-mTfR-EGFP cells. Background: Flow cytometry measures light scatter and fluorescence of single cells or particles in a stream.

Assay [2] has as its target T2, human transferrin receptor fused to EGFP, expressed on CHO cells (human, UniProt P02786 1-760).
T2 construct: whole, on cells; also called hTfR; human TfR
Description: flow cytometry, CHO-hTfR-EGFP cells.

Assay [3] concerns the target T3, mouse TfR ectodomain fused to a mouse IgG1 Fc fragment (mouse, UniProt Q62351 89-763).
T3 construct: extracellular domain; produced in-house; not shown: mouse IgG1 Fc fragment
The assay is described as follows: SPR (Biacore T200).

The target of assay [4] is murine TfR expressed by murine neuroblastoma Neuro-2a cells (mouse, UniProt Q62351 1-763). The assay is described as follows: cell-based or functional assay.
Assay [5] concerns the target T2, human transferrin receptor fused to …. Description: cell-based or functional assay.
The target in assay [6] is T1, mouse transferrin receptor fused to …. The assay is described as follows: flow cytometry, CHO-mTfR-EGFP cells, apparent Kd.
The target in assay [7] is T4, rhesus monkey transferrin receptor fused to EGFP, expressed on CHO cells (rhesus monkey, UniProt H9EXL1 1-760).
T4 construct: also called rhTfR; rhesus monkey TfR; not shown: EGFP fused to the cytoplasmic end of the receptor
Description: flow cytometry, CHO-rhTfR-EGFP cells, apparent Kd.

In assay [8] the target is T1, mouse transferrin receptor fused to …. The assay is described as follows: flow cytometry, CHO-mTfR-EGFP cells, apparent Kd. This is another data set of the same source.
In assay [9] the target is T2, human transferrin receptor fused to …. The assay is described as follows: flow cytometry, CHO-hTfR-EGFP cells, apparent Kd.

T2 sequence (P02786 whole entry, the tested form may be a part): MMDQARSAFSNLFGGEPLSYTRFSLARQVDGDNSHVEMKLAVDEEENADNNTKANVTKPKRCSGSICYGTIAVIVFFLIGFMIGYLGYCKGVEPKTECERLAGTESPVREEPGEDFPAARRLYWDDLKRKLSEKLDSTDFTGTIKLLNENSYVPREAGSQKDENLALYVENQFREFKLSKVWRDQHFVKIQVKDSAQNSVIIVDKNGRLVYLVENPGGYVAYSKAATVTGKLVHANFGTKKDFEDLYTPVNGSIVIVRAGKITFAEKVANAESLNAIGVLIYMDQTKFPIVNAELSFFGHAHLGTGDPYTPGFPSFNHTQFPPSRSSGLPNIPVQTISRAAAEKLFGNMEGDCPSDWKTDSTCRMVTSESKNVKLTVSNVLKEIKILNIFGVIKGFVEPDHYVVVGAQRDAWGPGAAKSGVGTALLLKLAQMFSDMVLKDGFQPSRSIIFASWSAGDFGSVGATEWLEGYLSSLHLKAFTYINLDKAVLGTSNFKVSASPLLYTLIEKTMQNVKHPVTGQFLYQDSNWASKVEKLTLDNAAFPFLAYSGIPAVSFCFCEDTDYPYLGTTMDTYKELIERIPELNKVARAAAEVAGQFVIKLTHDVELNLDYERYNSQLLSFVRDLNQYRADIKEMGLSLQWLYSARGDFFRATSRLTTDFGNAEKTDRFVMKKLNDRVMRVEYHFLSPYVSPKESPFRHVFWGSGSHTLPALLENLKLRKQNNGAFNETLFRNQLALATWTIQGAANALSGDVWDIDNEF
T1 sequence (Q62351 whole entry, the tested form may be a part): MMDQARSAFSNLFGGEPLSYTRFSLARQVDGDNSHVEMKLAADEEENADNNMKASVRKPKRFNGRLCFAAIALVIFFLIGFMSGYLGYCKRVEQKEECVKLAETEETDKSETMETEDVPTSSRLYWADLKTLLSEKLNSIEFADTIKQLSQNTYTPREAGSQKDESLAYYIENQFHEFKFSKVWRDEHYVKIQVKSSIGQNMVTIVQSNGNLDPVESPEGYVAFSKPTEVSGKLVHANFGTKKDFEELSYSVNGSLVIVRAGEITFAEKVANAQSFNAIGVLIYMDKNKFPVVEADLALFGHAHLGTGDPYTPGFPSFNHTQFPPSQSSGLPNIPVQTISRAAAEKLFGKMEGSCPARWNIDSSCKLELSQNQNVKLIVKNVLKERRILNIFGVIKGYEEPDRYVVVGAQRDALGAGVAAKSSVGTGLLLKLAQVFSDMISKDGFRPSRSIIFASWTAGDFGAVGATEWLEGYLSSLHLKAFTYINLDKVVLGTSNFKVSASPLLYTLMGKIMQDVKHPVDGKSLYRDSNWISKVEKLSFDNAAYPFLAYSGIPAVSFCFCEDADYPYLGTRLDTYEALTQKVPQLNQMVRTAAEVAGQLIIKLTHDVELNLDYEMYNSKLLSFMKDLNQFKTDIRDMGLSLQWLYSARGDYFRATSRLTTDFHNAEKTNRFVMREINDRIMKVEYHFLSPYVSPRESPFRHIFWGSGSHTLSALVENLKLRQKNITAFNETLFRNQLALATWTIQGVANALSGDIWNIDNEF
T4 sequence (H9EXL1 entry or part of it limits assumed, form in doubt): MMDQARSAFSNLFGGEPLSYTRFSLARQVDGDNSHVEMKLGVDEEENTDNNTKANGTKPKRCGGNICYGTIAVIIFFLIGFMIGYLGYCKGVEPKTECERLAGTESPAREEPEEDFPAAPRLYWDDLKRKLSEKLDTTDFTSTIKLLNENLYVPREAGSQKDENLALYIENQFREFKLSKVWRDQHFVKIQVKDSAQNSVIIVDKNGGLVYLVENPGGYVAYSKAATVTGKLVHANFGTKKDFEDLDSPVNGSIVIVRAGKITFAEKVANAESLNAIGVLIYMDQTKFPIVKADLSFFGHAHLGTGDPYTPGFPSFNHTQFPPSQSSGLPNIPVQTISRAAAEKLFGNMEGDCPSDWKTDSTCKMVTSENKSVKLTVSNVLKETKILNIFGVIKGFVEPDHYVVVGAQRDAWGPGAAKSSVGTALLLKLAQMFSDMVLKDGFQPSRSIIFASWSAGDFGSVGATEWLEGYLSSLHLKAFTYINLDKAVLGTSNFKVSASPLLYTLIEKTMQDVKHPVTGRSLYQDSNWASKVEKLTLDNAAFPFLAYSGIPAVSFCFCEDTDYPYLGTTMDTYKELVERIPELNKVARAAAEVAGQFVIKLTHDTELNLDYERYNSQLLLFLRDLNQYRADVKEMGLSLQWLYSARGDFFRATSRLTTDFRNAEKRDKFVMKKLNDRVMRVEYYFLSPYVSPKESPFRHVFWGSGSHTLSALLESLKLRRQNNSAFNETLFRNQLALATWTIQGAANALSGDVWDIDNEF
T3 sequence (Q62351 89-763): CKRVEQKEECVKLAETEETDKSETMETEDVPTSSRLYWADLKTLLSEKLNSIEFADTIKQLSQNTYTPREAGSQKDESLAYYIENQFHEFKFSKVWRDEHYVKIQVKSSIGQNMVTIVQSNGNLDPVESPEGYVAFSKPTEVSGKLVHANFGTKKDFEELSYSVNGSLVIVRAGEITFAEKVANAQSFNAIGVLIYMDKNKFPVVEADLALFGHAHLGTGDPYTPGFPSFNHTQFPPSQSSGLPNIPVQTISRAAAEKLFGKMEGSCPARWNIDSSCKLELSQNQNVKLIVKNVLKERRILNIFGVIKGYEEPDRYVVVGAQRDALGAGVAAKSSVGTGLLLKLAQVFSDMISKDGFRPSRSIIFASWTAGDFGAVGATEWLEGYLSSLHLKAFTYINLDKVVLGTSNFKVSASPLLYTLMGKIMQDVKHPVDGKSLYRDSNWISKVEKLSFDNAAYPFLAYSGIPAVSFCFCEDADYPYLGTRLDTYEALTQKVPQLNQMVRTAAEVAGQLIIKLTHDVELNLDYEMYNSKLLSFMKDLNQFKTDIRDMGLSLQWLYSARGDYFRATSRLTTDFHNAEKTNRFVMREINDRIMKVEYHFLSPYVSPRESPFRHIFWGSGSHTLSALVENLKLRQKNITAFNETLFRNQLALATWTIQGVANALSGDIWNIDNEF
Chain of murine TfR expressed by murine neuroblastoma Neuro-2a cells (Q62351 whole entry, the tested form may be a part): as the sequence (Q62351 whole entry, the tested form may be a part) above

B1: VHH A17 (C5^V17) (VHH)
VHH: EVQLVESGGGVVQPGGSLKLSCVASGTDFSINFIRWYRQAPGKQREFVAGFTATGNTNYADSMKGRFTISRDNTKNAVYLQIDSLKPEDTAVYYCYMIDKWGQGTQVTVSS
Regarding B1, the binding result in [1] and in [2] was “binds” each time.

B2: VHH A19 (C5^V19) (VHH)
VHH: B1 VHH with I98L, D99E
For B2, the binding result in [1] is “binds”.

B3: VHH D (H3) (VHH)
VHH: EVQLVESGGGEVQPGGSLKLSCVASGTDFSINFVRWYRQRPGKQREWVAGFTANGDTNYPDSMKGRFTISRDNAKNTVYLQINSLKSEDTAVYYCYMLDNWGQGTQVTVSS
The molecule B3 had a kon in assay [3] of 5.81e+06 M⁻¹ s⁻¹.

B4: C5-siSOD1m-5'VP (other)
VHH: EVQLVESGGGVVQPGGSLKLSCVASGTDFSINFIRWYRQAPGKQREFVAGFTATGNTNYADSMKGRFTISRDNTKNAVYLQIDSLKPEDTAVYYCYMLDKWGQGTQVTVSSAAAEQKLISEEDLNGAAHHHHHHGS
modifications: siSOD1m-5'VP siRNA (SEQ ID NOs 465/466) linked by a stable linker to the tag
On to B4, for which, in assay [4], the “mean IC50 of mSOD1 mRNA downregulation, free uptake on Neuro-2a cells” value turned out to be 7.4 nM.

B5: VHH A-siGFPst1 bioconjugate (other)
VHH: B4 VHH
modifications: siGFPst1 siRNA (3' end of sense strand, DBCO) clicked to 3-azido-1-propanamine on the Gln of the C-terminal Q-tag
For B5, in assay [5], the “IC50 of the reduction of GFP protein levels, 6-hour pulse and chase to 120 hrs” value was 1.24 nM; the “IC50 of the reduction of GFP protein levels, free uptake 120 hrs” value turned out to be 2.73 nM.

B6: VHH A6 (C5^V6) (VHH)
VHH: B1 VHH with M97A, I98L
Consider B6, for which the binding result in assay [1] and in assay [2] was “binds” throughout.

B7: 13C3-LC-VHH A (bispecific antibody)
heavy: QVQLQQSGPELVRPGVSVKISCKGSGYTFTDYAMHWVKQSHAKSLEWIGVISTKYGKTNYNQKFKGKATMTVDKSSSTAYMELARLTSEDSAIYYCARGDDGYSWGQGTSVTVSSAKTTPPSVYPLAPGSAAQTNSMVTLGCLVKGYFPEPVTVTWNSGSLSSGVHTFPAVLQSDLYTLSSSVTVPSSTWPSETVTCNVAHPASSTKVDKKIVPRDCGCKPCICTVPEVSSVFIFPPKPKDVLTITLTPKVTCVVVDISKDDPEVQFSWFVDDVEVHTAQTQPREEQFNSTFRSVSELPIMHQDWLNGKEFKCRVNSAAFPAPIEKTISKTKGRPKAPQVYTIPPPKEQMAKDKVSLTCMITDFFPEDITVEWQWNGQPAENYKNTQPIMDTDGSYFVYSKLNVQKSNWEAGNTFTCSVLHEGLHNHHTEKSLSHSPG
light: DVVMTQTPLSLPVSLGDQASISCRSGQSLVHSNGNTYLHWYLQKPGQSPKLLIYTVSNRFSGVPDRFSGSGSGSDFTLKISRVEAEDLGVYFCSQNTFVPWTFGGGTKLEIKRADAAPTVSIFPPSSEQLTSGGASVVCFLNNFYPKDINVKWKIDGSERQNGVLNSWTDQDSKDSTYSMSSTLTLTKDEYERHNSYTCEATHKTSTSPIVKSFNRNECSGSGGGGGMAEVQLVESGGGVVQPGGSLKLSCVASGTDFSINFIRWYRQAPGKQREFVAGFTATGNTNYADSMKGRFTISRDNTKNAVYLQIDSLKPEDTAVYYCYMLDKWGQGTQVTVSSAAA
B7: the Kd in assay [6] was 106 nM.

B8: B8^V9 (VHH)
VHH: EVQLVESGGGVVQPGGSLRLSCAASGEIFSINFMRWYRQAPGKQREWVAGFTRDGSKNYPDSAKGRFTISRDNAKNTVYLQIDSLKPEDTAVYYCYMLDTWGQGTQVTVSS
For the molecule B8, in [7], the Kd was determined as 24 nM.

B9: E9 (VHH)
VHH: EVQLVESGGGLVQPGGSLRLSCVSSATFGGYSMGWFRQAPGKEREFVAAITWNGGIIKDYADGVMGRFTISRNSALNTVYLQMDSLKSTDTGVYVCAGDRTYYAGGYVPTSEREYAFWGQGTQVTVSS
As for B9, the Kd came out at 1540 nM in assay [7], 1310 nM in assay [8] and 1290 nM in assay [9].

As a reminder, the kon is a measure of how fast the partners come together.

Values taken from patent EP4480965A1 (Vect-Horus, dated 2024).
